Experimental findings from the supplement of paper PMC10567573 are described below.

± gives the standard deviation.

A short description of this data set: protein stability index of a GFP-peptide fusion (GPS, HEK-293T) (PSI 1-6); higher = more stable.
The mark [1] stands for this setting: treatment: DMSO, c terminus: a fixed tail appended.
[2] abbreviates: treatment: MLN4924 1 uM, 8 h, c terminus: a fixed tail appended.
Setting [3] is: treatment: DMSO, c terminus: native.
The mark [4] stands for this setting: treatment: MLN4924 1 uM, 8 h, c terminus: native.
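Also: 24-mer peptide tiles fused after GFP, lentivirally expressed, FACS-sorted into six equal bins by GFP/DsRed ratio, decoded by Illumina sequencing, PSI is the read-weighted mean bin number.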

LRDVNHEKAMAEWVKQQAEREAEK [SDE2]: the protein stability index is, setting by setting: under setting [1], 5.19 ± 0.12; under setting [2], 5.42 ± 0.23.
For the sequence LRPRPASSISLPIGHLGCISLLS [DMRTC1], the protein stability index under setting [3] was determined as 2.47 ± 0.41 and the protein stability index under setting [4] is 2.43 ± 0.33.
With LSDTELTTLLRRYNIPHGPVVGST [EMD], the protein stability index stood at 2.74 ± 0.38 under setting [1] and 2.69 ± 0.26 under setting [2].
For LSLIARFSPIAIDGMSGLAGVGLS [ELAVL3], in that order: 2.7 ± 0.73 and 2.48 ± 0.42.
On to LSMDEKVELYRIKFKESFAEMNRG [COX4I1], for which the protein stability index stood at 2.9 ± 0.2 under setting [1] and 2.97 ± 0.21 under setting [2].
The corresponding values for LSMERYALVFGVNTFIALALQTLL [SLC19A2] are 3.04 ± 0.22 and 2.93 ± 0.53.
The corresponding values for LSRQEFLGMVGLFGTIISGIQLLI [SLC35F2] are 2.28 ± 0.25 and 2.09 ± 0.33.
The corresponding values for LSTPKPLVDFCNKPILLHQVEALA [GMPPB] are 2.54 ± 0.3 and 2.52 ± 0.41.
Take LTCDSAQKCHSIGETDEVTKTEDR [ZSCAN9]: the protein stability index by setting is: under setting [1], 5.27 ± 0.34; under setting [2], 5.59 ± 0.13.
As to LTSDLYAPMVAGALARLGTVTVIS [SLC25A39], the protein stability index is, setting by setting: under setting [1], 2.92 ± 0.4; under setting [2], 2.67 ± 0.69.
As for LVCTADGDIHLSPEEPAASTDPNI [TAF7L], the protein stability index runs as follows: under setting [1], 4.85 ± 0.2; under setting [2], 4.89 ± 0.22.
For LVEELSPASEKKPVPPSEGKSRLS [BCL2L13], in that order: 5.32 ± 0.31 and 5.46 ± 0.15.
In the case of LVKDNPQRSYFLRIFDIKDGKLLW [WASL], the protein stability index under setting [1] was determined as 1.99 ± 0.28 and the protein stability index under setting [2] stood at 2.05 ± 0.36.
The corresponding values for LVLRRQLKNKCCPPPCKFGEGKLS [C22orf31] are 2.21 ± 0.31 and 2.52 ± 0.34.
The corresponding values for LVMEGTDDGRLLEYDTVTREVKVL [APMAP] are 3.5 ± 0.21 and 3.58 ± 0.37.
For LVNHVNIRLQAELEEGENPVPAFQ [SMG5], in that order: 4.04 ± 0.091 and 4.07 ± 0.17.
On to LVQLDDYRFASAGDDGIVVVWNAQ [WDR41], for which the protein stability index turned out to be 2.64 ± 0.28 under setting [1] and 2.87 ± 0.31 under setting [2].
The corresponding values for LVQLEDEITTLRQVLSAKERHLVE [TPD52L1] are 2.85 ± 0.16 and 3.04 ± 0.44.
Take LWGRTQEEAEELAKEMSVPFYTSR [GFOD1]: the protein stability index runs as follows: under setting [1], 3.4 ± 0.18; under setting [2], 3.61 ± 0.32.
Turning to LYPALKGVNTVFHCASPPPSSNNK [NSDHL], the protein stability index reads like this: under setting [1], 3.47 ± 0.064; under setting [2], 3.52 ± 0.16.
For the sequence LYSRTGDIVEFVCKSGYHPTKSHS [CFHR2], the protein stability index under setting [1] was 2.15 ± 0.16 and the protein stability index under setting [2] turned out to be 2.45 ± 0.4.
For LYSSSLGGGVATSPMLIVFHGKYS [GLT8D2], in that order: 2.38 ± 0.48 and 2.44 ± 0.52.
For the sequence LYVLKGGYKEFFMKCQSYCEPPSY [CDC25A], the protein stability index was 2.62 ± 0.68 under setting [1] and 2.65 ± 0.27 under setting [2].
The corresponding values for MAAAQEADGARSAVVAAGGGSSGQ [CLPTM1] are 5.36 ± 0.26 and 5.29 ± 0.2.
The corresponding values for MADKAKPAKAANRTPPKSPGDPSK [TPPP] are 5.22 ± 0.25 and 5.39 ± 0.15.
The corresponding values for MAERLEDSVLKGMQAASSKMVSAE [SDE2] are 4.54 ± 0.36 and 4.55 ± 0.24.
Regarding MAGAIAQGLIRAGKVEAQHILASA [PYCR3], the protein stability index is 2.18 ± 0.18 under setting [1] and 2.31 ± 0.32 under setting [2].
For MARVAWGLLWLLLGSAGAQYEKYS [P3H4], in that order: 3.18 ± 0.83 and 3.16 ± 0.48.
For MASRAGPRAAGTDGSDFQHRERVA [JAGN1], in that order: 4.67 ± 0.31 and 4.7 ± 0.13.
For MASSAASSEHFEKLHEIFRGLHED [VTI1B], in that order: 4.29 ± 0.16 and 4.28 ± 0.1.
With MAYDQFLAICRPLTYSTRMSQTVQ [OR3A1], the protein stability index reads like this: under setting [1], 2.25 ± 0.33; under setting [2], 2.21 ± 0.29.
For MDPGWGQRDVGWAALLILFAASLL [C2CD2L], in that order: 2.34 ± 0.24 and 2.26 ± 0.31.
For MFSFNMFDHPIPRVFQNRFSTQYR [UFD1], in that order: 2.13 ± 0.17 and 2.22 ± 0.22.
MGSLSSRVLRQPRPALAQQAQGAR [GMCL1]: the protein stability index turned out to be 4.46 ± 0.28 under setting [1] and 4.56 ± 0.18 under setting [2].
For MGSQGSPVKSYDYLLKFLLVGDSD [RAB40C], in that order: 2.29 ± 0.28 and 2.37 ± 0.099.
For MHANVEDRGIKGDITPLMAAANGG [ANKRD17], in that order: 4.58 ± 0.14 and 4.67 ± 0.086.
For MHLNFMDEKDRIITAFYNEARARA [DNAJC4], the protein stability index turned out to be 2.92 ± 0.35 under setting [1] and 2.98 ± 0.19 under setting [2].
For MLNEPLVREIVKECSNIPLSQPQQ [GAN], the protein stability index is, setting by setting: under setting [1], 3.85 ± 0.2; under setting [2], 3.95 ± 0.077.
The corresponding values for MLSLKKYLTEGLLQFTILLSLIGV [NFE2L1] are 3.33 ± 0.27 and 2.82 ± 0.47.
For MMLFNDGTFQVNFYHDHTKIIICS [PLK2], in that order: 2.79 ± 0.83 and 2.88 ± 0.86.
In turn, MPCLLMELRRDSSESQLASTESDK [C18orf25] came in with a protein stability index under setting [1] of 4.73 ± 0.05 and a protein stability index under setting [2] of 4.55 ± 0.22.
The corresponding values for MRGRIYLEPPTMRKKRLLDRKVLL [GOLPH3L] are 2.34 ± 0.27 and 2.47 ± 0.29.
MSELFLHTPSDTGVSFQAISSMAD [PKD2L1]: the protein stability index was 3.41 ± 0.15 under setting [1] and 3.61 ± 0.27 under setting [2].
Sequence MSFVAGVIRRLDETVVNRIAAGEV [MLH1] registered a protein stability index under setting [1] of 2.85 ± 0.35.
As to MSGGGVIRGPAGNNDCRIYVGNLP [SRSF1], the protein stability index reads like this: under setting [1], 2.85 ± 0.29; under setting [2], 2.96 ± 0.51.
The corresponding values for MSIHIVALGNEGDTFHQDNQPSGL [RHOBTB3] are 2.51 ± 0.25 and 2.52 ± 0.4.
MSRQFTCKSGAAAKGGFSGCSAVL [KRT71] showed a protein stability index under setting [1] of 2.59 ± 0.35 and a protein stability index under setting [2] of 2.18 ± 0.43.
MSVAIRKRSWEEHVTHWMGQPFNS [DLC1]: the protein stability index under setting [1] stood at 2.41 ± 0.65 and the protein stability index under setting [2] is 2.43 ± 0.18.
Turning to MTLEEFSAGEQKTERMDKVGDALE [GADD45A], the protein stability index was determined as 5.28 ± 0.15 under setting [1] and 5.36 ± 0.18 under setting [2].
The corresponding values for MVILISIVIFCLETLPELKDDKDF [KCNA1] are 3.03 ± 0.71 and 2.72 ± 0.52.
For the sequence MVLLTMIARVADGLPLAASMQEDE [SEC22B], the protein stability index is, setting by setting: under setting [1], 3.26 ± 0.71; under setting [2], 2.94 ± 0.2.
MVVSREEVELAYQEAMFNMATLNR [SEPHS2] yielded a protein stability index under setting [1] of 2.93 ± 0.29 and a protein stability index under setting [2] of 3.03 ± 0.2.
Consider MWWRGCKIKAIMALVAAILLLVII [VAMP4], for which the protein stability index turned out to be 2.89 ± 0.096 under setting [1] and 2.855 ± 0.027 under setting [2].
The corresponding values for MYDNELWAPASEGLKPGPEDGPGK [SERTAD1] are 4.99 ± 0.46 and 5.25 ± 0.22.
The corresponding values for NAGKVNLPKELPADAVNLTIPASL [PLAGL1] are 4.4 ± 0.25 and 4.43 ± 0.22.
The corresponding values for NARAQQRAAAQQRRSFLNAHHRSG [GNAS] are 4.28 ± 0.32 and 4.36 ± 0.14.
Take NASRSLYPDAEDPQLGLDGPGEPD [PSD2]: the protein stability index reads like this: under setting [1], 5.4 ± 0.2; under setting [2], 5.51 ± 0.22.
In turn, NCLPKHLLHSVNQRFGSNNTSGS [KLHDC2] returned a protein stability index under setting [3] of 2.69 ± 0.33 and a protein stability index under setting [4] of 2.99 ± 0.28.
Consider NDADKAINTLNGLKLQTKTIKVSY [ELAVL3], for which the protein stability index is 2.96 ± 0.23 under setting [1] and 3.11 ± 0.25 under setting [2].
As to NDPSGSEEADFLSAETGSPRLTMH [IRX6], the protein stability index reads like this: under setting [1], 5.16 ± 0.083; under setting [2], 5.2 ± 0.057.
For NDSGICMSPESYLGSPQHSPSTRG [ATF4], in that order: 4.53 ± 0.29 and 4.86 ± 0.15.
For NFEKLRLSLQDQVDTLTFQSQSLR [MTUS2], in that order: 3.01 ± 0.22 and 3.14 ± 0.37.
The corresponding values for NHLLESMPLREGSSFQDLLGDALA [HES6] are 3.34 ± 0.31 and 3.4 ± 0.31.
For NILLKNLVTIARKASLWQFLSSEK [TRIM43], the protein stability index worked out at 2.17 ± 0.42 under setting [1] and 2.13 ± 0.18 under setting [2].
The corresponding values for NIPMETEETHLEETTESQQNGEEG [SMARCE1] are 5.39 ± 0.5 and 5.6 ± 0.21.
For the sequence NKEYIKRLLMSQADKMTAEEVDQM [MYL5], the protein stability index worked out at 4.53 ± 0.28 under setting [1] and 4.48 ± 0.23 under setting [2].
For NKINAGMYILSPAVLRRIQLQPTS [GMPPB], in that order: 2.24 ± 0.24 and 2.28 ± 0.38.
For NKLPEGVPQPARMPYISDKHPRQT [KLHL20], in that order: 4.69 ± 0.12 and 4.77 ± 0.15.
The corresponding values for NKRKTYTESYIARPDGDCASSLNG [ZC2HC1A] are 4.18 ± 0.23 and 4.44 ± 0.3.
As to NKTLLRLRLRKERVSDVQKVLQGG [PKD2L1], the protein stability index runs as follows: under setting [1], 2.65 ± 0.23; under setting [2], 2.94 ± 0.35.
For NLGGGDPKGWRQLAQEAEAWLNYP [OAS1], in that order: 3.22 ± 0.26 and 3.37 ± 0.26.
For NNKKWILSASKDRTMRLWNIEEID [WDR88], in that order: 2.66 ± 0.12 and 2.86 ± 0.44.
